In PMC5865211, “The orphan GPR50 receptor promotes constitutive TGFβ receptor signaling and protects against cancer development” (Nature Communications, 2018) one finds BRET50 data, which are given here for 3 molecules.

B2: TβRI-Renilla luciferase 8 (Rluc8) fusion protein (receptor, UniProt P36897 34-503, looked up)
chain: LQCFCHLCTKDNFTCVTDGLCFVSVTETTDKVIHNSMCIAEIDLIPRDRPFVCAPSSKTGSVTTTYCCNQDHCNKIELPTTVKSSPGLGPVELAAVIAGPVCFVCISLMLMVYICHNRTVIHHRVPNEEDPSLDRPFISEGTTLKDLIYDMTTSGSGSGLPLLVQRTIARTIVLQESIGKGRFGEVWRGKWRGEEVAVKIFSSREERSWFREAEIYQTVMLRHENILGFIAADNKDNGTWTQLWLVSDYHEHGSLFDYLNRYTVTVEGMIKLALSTASGLAHLHMEIVGTQGKPAIAHRDLKSKNILVKKNGTCCIADLGLAVRHDSATDTIDIAPNHRVGTKRYMAPEVLDDSINMKHFESFKRADIYAMGLVFWEIARRCSIGGIHEDYQLPYYDLVPSDPSVEEMRKVVCEQKLRPNIPNRWQSCEALRVMAKIMRECWYANGAARLTALRIKKTLSQLSQQEGIKM
notes: TGFβ receptor type I; In the homomer BRET row the second copy of TβRI carried YFP (TβRI-YFP) instead of Rluc8; also called TβRI-Rluc8; source: HEK293T, transfected, in intact cells

Data set [1] has as its target B2. Put plainly: FRET or BRET; BRET donor saturation in intact HEK293T cells; fixed amount of TβRI-Rluc8, increasing amounts of YFP fusion; no TGFβ. The conditions noted are these: partners not purified.
Data set [2] concerns the molecule itself. Described as above.

B1: TβRII-YFP (receptor, UniProt P37173 23-567, looked up)
chain: TIPPHVQKSVNNDMIVTDNNGAVKFPQLCKFCDVRFSTCDNQKSCMSNCSITSICEKPQEVCVAVWRKNDENITLETVCHDPKLPYHDFILEDAASPKCIMKEKKKPGETFFMCSCSSDECNDNIIFSEEYNTSNPDLLLVIFQVTGISLLPPLGVAISVIIIFYCYRVNRQQKLSSTWETGKTRKLMEFSEHCAIILEDDRSDISSTCANNINHNTELLPIELDTLVGKGRFAEVYKAKLKQNTSEQFETVAVKIFPYEEYASWKTEKDIFSDINLKHENILQFLTAEERKTELGKQYWLITAFHAKGNLQEYLTRHVISWEDLRKLGSSLARGIAHLHSDHTPCGRPKMPIVHRDLKSSNILVKNDLTCCLCDFGLSLRLDPTLSVDDLANSGQVGTARYMAPEVLESRMNLENVESFKQTDVYSMALVLWEMTSRCNAVGEVKDYEPPFGSKVREHPCVESMKDNVLRDRGRPEIPSFWLNHQGIQMVCETLTECWDHDPEARLTAQCVAERFSELEHLDRLSGRSCSEEKIPEDGSLNTTK
notes: TGFβ receptor type II; also called TβRII-yellow fluorescent protein fusion; source: HEK293T, transfected, in intact cells
Molecule B1 registered a BRET50 in data set [1] of 0.046 ± 0.008.
Take B2: the BRET50 in data set [2] came out at 1.34 ± 0.185.

B3: GPR50Δ4-YFP (receptor, human, UniProt Q13585 1-617, looked up)
chain: MGPTLAVPTPYGCIGCKLPQPEYPPALIIFMFCAMVITIVVDLIGNSMVILAVTKNKKLRNSGNIFVVSLSVADMLVAIYPYPLMLHAMSIGGWDLSQLQCQMVGFITGLSVVGSIFNIVAIAINRYCYICHSLQYERIFSVRNTCIYLVITWIMTVLAVLPNMYIGTIEYDPRTYTCIFNYLNNPVFTVTIVCIHFVLPLLIVGFCYVRIWTKVLAARDPAGQNPDNQLAEVRNFLTMFVIFLLFAVCWCPINVLTVLVAVSPKEMAGKIPNWLYLAAYFIAYFNSCLNAVIYGLLNENFRREYWTIFHAMRHPIIFFSGLISDIREMQEARTLARARAHARDQAREQDRAHACPAVEETPMNVRNVPLPGDAAAGHPDRASGHPKPHSRSSSAYRKSASTHHKSVFSHSKAASGHLKPVSGHSKPASGHPKSATVYPKPASVHFKADSVHFKGDSVHFKPDSVHFKPASSNPKPITGHHVSAGSHSKSAFSAATSHPKPIKPATSHAEPTTADYPKPATTSHPKPTAADNPELSASHCPEIPAIAHPVSDDSDLPESASSPAAGPTKPAASQLESDTIADLPDPTVVTTSTNDYHDVVVIDVEDDPDEMAV
notes: also called GPR50-YFP; source: HEK293T, transfected, in intact cells
In data set [1], B3 had a BRET50 of 0.031 ± 0.01.
